The target in assay [1] is T1, CNGB3-MYC/His fusion protein (human, UniProt Q9NQW8 1-809).
T1 construct: Full-length CNGB3 cDNA in pcDNA3.1/myc-His-B, expressed in HeLa and HEK293T cells; also called recombinant CNGB3; not shown: C-terminal myc-His tag from the pcDNA3.1/myc-His-B vector
T1 sequence: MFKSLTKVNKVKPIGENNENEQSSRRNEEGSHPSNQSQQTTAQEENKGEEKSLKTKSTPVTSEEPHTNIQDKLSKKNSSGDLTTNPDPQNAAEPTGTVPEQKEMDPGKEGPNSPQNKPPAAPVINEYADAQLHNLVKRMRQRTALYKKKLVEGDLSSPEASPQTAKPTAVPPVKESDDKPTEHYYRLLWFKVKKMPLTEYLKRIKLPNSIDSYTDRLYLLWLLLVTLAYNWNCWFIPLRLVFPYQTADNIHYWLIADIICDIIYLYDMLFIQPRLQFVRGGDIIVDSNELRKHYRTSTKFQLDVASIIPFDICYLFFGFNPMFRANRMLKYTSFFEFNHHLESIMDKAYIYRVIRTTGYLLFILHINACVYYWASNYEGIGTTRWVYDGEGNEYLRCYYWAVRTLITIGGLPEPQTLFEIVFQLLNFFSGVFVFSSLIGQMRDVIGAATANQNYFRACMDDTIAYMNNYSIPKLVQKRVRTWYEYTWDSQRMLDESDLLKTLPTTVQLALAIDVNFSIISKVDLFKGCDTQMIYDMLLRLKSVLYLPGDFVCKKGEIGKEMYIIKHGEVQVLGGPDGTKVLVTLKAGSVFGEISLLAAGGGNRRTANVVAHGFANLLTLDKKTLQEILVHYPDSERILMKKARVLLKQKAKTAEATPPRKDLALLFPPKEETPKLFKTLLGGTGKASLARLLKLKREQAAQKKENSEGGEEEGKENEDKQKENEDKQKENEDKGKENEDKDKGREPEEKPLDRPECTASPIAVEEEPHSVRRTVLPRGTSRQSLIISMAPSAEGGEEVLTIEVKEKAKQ
In words: fluorescence microscopy of CNGB3-MYC expressing HEK293T cells, 37° C. for 30 min, Alexa 488-conjugated avidin. The method, then:
When dKLAK-z13 was added to culture medium of HEK293T cells transfected by expression vector for CNGB3-MYC, apoptosis was not induced, however. It was realized that this lack of effect could be due to the fact that receptor-bound dKLAK-z13 localizes to the luminal side of endosomes, a prediction supported by the endosome-like pattern of fluorescent z13. To release dKLAK-z13 from the endosomes to the cytoplasm, an endosome-escaping 18-mer peptide […] (SEQ ID NO:38; here abbreviated as HLAH) was devised by replacing lysines in KLAKLAK (SEQ ID NO:39) with histidines, to provide histidine-rich sequences capable of destabilizing endosome membranes at acidic pH (Midoux et al., 2002; Pichon et al., 2001). […] For this experiment, biotin-z13 was bound to CNGB3-MYC expressing HEK293T cells at 37° C. for 30 min with or without HLAH-z13. Cells were stained by Alexa 488-conjugated avidin followed by DAPI nuclear staining.

Assay [2] deals with T1, CNGB3-MYC/His fusion protein. Briefly: fluorescence microscopy of HeLa cells transfected with CNGB3-MYC; FITC-z13 in the culture medium. On the procedure: When FITC-z13 was added to culture medium of CNGB3-MYC-expressing HeLa cells, FITC-z13 bound to sites marked by MYC-epitope expression. […] Antibody specificity was validated by immunostaining of CNGB3-Myc expressed in HeLa cells. This antibody strongly stained glandular epithelia of endometriosis in tissue sections.
CNGB3 cDNA was kindly provided by Dr. Hisao Ueyama, Department of Ophthalomology, Shiga University of Medical Science, Japan. cDNA encoding full-length CNGB3 was excised by HindIII and BsrGI and ligated into the HindIII and Asp718I sites of pcDNA3.1/myc-His-B vector (Invitrogen). HeLa cells were transfected with this vector, and expression of CNGB3-MYC/His fusion protein was determined by immunohistochemistry with an anti-MYC antibody and the anti-CNGB3 antibody (clone 3B2) described above. To test binding of z13 peptide to CNGB3, FITC-z13 was added (5 μg/ml) to the medium of HeLa cells transfected by the above-described vector and incubated at 37° C. for 15 min. Cells were washed with PBS, fixed with 4% PFA in PBS, and observed under a fluorescence microscope.

Where no end group is shown, it is not given here. The star is where a group is joined. FITC = O=C1OC2(c3ccc(O)cc3Oc3cc(O)ccc32)c2ccc(NC(=S)*)cc21

This note sets out measurements from patent publication US20160145308A1 (SANFORD BURNHAM MEDICAL RESEARCH INSTITUTE, published 2016).

Take VRRADNRPG (also: biotinylated (position not given here), also called biotin-z13) [biotinylated z13]: the binding result in assay [1] is “binds”.

B1: FITC-z13 (peptide)
peptide: {FITC}-VRRADNRPG
notes: Synthetic fluorescence-tagged z13 peptide; also called fluorescent FITC-z13; z13 peptide with an N-terminal FITC-tag
Consider B1, for which, in assay [2], the binding result is “binds”.
